Data as given in publication doi:10.1101/307710, “Assignment of the resting state of the secondary active transporter BetP by integrating spectroscopic measurements and molecular simulations” (bioRxiv, 2018).

Biological target: the molecule itself
Assay: PELDOR (DEER) spectroscopy; spin-labelled BetP in E. coli polar lipid proteoliposomes (lipid to protein 20:1), 200 mM Tris-HCl pH 7.5 in deuterated water, with 500 mM NaCl or with 300 mM NaCl and 5 mM betaine; Q-band, four-pulse sequence; distance distributions by Tikhonov regularisation

B1: BetP G450R5/S516R5 in the background of the C252T cys-less variant (spin-labelled glycine betaine symporter BetP of Corynebacterium glutamicum) (natural protein, UniProt P54582 1-595, looked up)
chain: MTTSDPNPKPIVEDAQPEQITATEELAGLLENPTNLEGKLADAEEEIILEGEDTQASLNWSVIVPALVIVLATVVWGIGFKDSFTNFASSALSAVVDNLGWAFILFGTVFVFFIVVIAASKFGTIRLGRIDEAPEFRTVSWISMMFAAGMGIGLMFYGTTEPLTFYRNGVPGHDEHNVGVAMSTTMFHWTLHPWAIYAIVGLAIAYSTFRVGRKQLLSSAFVPLIGEKGAEGWLGKLIDILAIIATVFGTATSLGLGALQIGAGLSAANIIEDPSDWTIVGIVSVLTLAFIFSAISGVGKGIQYLSNANMVLAALLAIFVFVVGPTVSILNLLPGSIGNYLSNFFQMAGRTAMSADGTAGEWLGSWTIFYWAWWISWSPFVGMFLARISRGRSIREFILGVLLVPAGVSTVWFSIFGGTAIVFEQNGESIWGDGAAEEQLFGLLHALPGCQIMGIIAMILLGTFFITSADSASTVMGTMSQHGQLEANKWVTAAWGVATAAIGLTLLLSGGDNALCNLQNVTIVAATPFLFVVIGLMFALVKDLSNDVIYLEYREQQRFNARLARERRVHNEHRKRELAAKRRRERKASGAGKRR
modifications: R5 spin label ((1-oxyl-2,2,5,5-tetramethylpyrrolidin-3-yl)methyl methanethiosulfonate) on the cysteines introduced at positions 450 and 516
notes: Glycine betaine symporter BetP (betaine permease), Corynebacterium glutamicum; expressed from pASK-IBA5betP; cys-less C252T background with cysteines introduced at G450 and S516; also called periplasmic spin label pair; betaine permease
B1: binds.
